B1: LINE1-full (parent)
chain: UACGUAGGUGGUUUUCCCCUGAUAGUGCUAAGGGGGCCUGGAAGUUUGGACUGGGCAGAGCUCAACACAGCGUGGCAAAGUGGCUGUGGCUAGACUGCCUCUCUGGAUUCCUCGUCACUCAGCAGGGCAUCUCUGAGAGAAAUGCC

Variants of: B1
Experiment: self-cleavage, relative activity (ratio to wild type); higher = more cleavage; in vitro, sequencing; the parent is a self-cleaving ribozyme

Going from UACGUAGGUGGUUUUCCCCUGAUAGCGCUAAGGGGGCCUGGAAGUUUGGACUGGGCAGAGCUCAACACAGCGUGGCAAAGUGGCUGUGGCUAGACUGCCUCUCUGGAUUCCUCGUCACACAGCAGGGCAUCUCUGAGAGAAAUGCC [U26C U119A] to UACGUAGGUGGUUUUCCCCUGAUAGCGCUAAGGGGGCCUGGAAGUUUGGACUGGGCAGAGCUCAACACAGCGUGGCAAAGUGGCUGUGGCUAGACUGCCUCUCUGGAUUCCUCGUCACUCAGCAGGGCAACUCUGAGAGAAAUGCC [U26C U130A], the self-cleavage rises from 1.25 to 1.35.

First: UACGUAGGUGGUUUUCCCCUGAUAGCGCUAAGGGGGCCUGGAAGUUUGGACUGGGCAGAGCUCAACACAGCGUGGCAAAGUGGCUGUGGCUAGACUGCCUCUCUGGAUUCCUCGUCACUCAGCAGGGCACCUCUGAGAGAAAUGCC [U26C U130C]
Second: UACGUAGGUGGUUUUCCCCUGAUAGCGCUAAGGGGGCCUGGAAGUUUGGACUGGGCAGAGCUCAACACAGCGUGGCAAAGUGGCUGUGGCUAGACUGCCUCUCUGGAUUCCUCGUCACUCAGCAGGGCAUCACUGAGAGAAAUGCC [U26C U132A]
The self-cleavage of the first is lower: 1.7 for the first, 1.73 for the second.

First: UACGUAGGUGGUUUUCCCCUGAUAGCGCUAAGGGGGCCUGGAAGUUUGGACUGGGCAGAGCUCAACACAGCGUGGCAAAGUGGCUGUGGCUAGACUGCCUCUCUGGAUUCCUCGUCACUCAGCAGGGCAUCUCAGAGAGAAAUGCC [U26C U134A]
Second: UACGUAGGUGGUUUUCCCCUGAUAGGGCUAUGGGGGCCUGGAAGUUUGGACUGGGCAGAGCUCAACACAGCGUGGCAAAGUGGCUGUGGCUAGACUGCCUCUCUGGAUUCCUCGUCACUCAGCAGGGCAUCUCUGAGAGAAAUGCC [U26G A31U]
The self-cleavage of the first is higher: 1.32 for the first, 1.16 for the second.

Compared with UACGUAGGUGGUUUUCCCCUGAUAGGGCUAAGGGGGCCUGGAAGUUUGGGCUGGGCAGAGCUCAACACAGCGUGGCAAAGUGGCUGUGGCUAGACUGCCUCUCUGGAUUCCUCGUCACUCAGCAGGGCAUCUCUGAGAGAAAUGCC [U26G A50G], UACGUAGGUGGUUUUCCCCUGAUAGGGCUAAGGGGGCCUGGAAGUUUGGACUGGGCGGAGCUCAACACAGCGUGGCAAAGUGGCUGUGGCUAGACUGCCUCUCUGGAUUCCUCGUCACUCAGCAGGGCAUCUCUGAGAGAAAUGCC [U26G A57G] is higher in self-cleavage: 0.56 for the first, 0.82 for the second.

Compared with UACGUAGGUGGUUUUCCCCUGAUAGGGCUAAGGGGGCCUGGAAGUUUGGACUGGGCAGGGCUCAACACAGCGUGGCAAAGUGGCUGUGGCUAGACUGCCUCUCUGGAUUCCUCGUCACUCAGCAGGGCAUCUCUGAGAGAAAUGCC [U26G A59G], UACGUAGGUGGUUUUCCCCUGAUAGGGCUAAGGGGGCCUGGAAGUUUGGACUGGGCAGAGCUCAACACGGCGUGGCAAAGUGGCUGUGGCUAGACUGCCUCUCUGGAUUCCUCGUCACUCAGCAGGGCAUCUCUGAGAGAAAUGCC [U26G A69G] is lower in self-cleavage: 0.41 for the first, 0.17 for the second.

First: UACGUAGGUGGUUUUCCCCUGAUAGGGCUAAGGGGGCCUGGAAGUUUGGACUGGGCAGAGCUCAACACAGCGUGGCGAAGUGGCUGUGGCUAGACUGCCUCUCUGGAUUCCUCGUCACUCAGCAGGGCAUCUCUGAGAGAAAUGCC [U26G A77G]
Second: UACGUAGGUGGUUUUCCCCUGAUAGGGCUAAGGGGGCCUGGAAGUUUGGACUGGGCAGAGCUCAACACAGCGUGGCAGAGUGGCUGUGGCUAGACUGCCUCUCUGGAUUCCUCGUCACUCAGCAGGGCAUCUCUGAGAGAAAUGCC [U26G A78G]
The self-cleavage of the first is higher: 2.53 for the first, 1.31 for the second.

First: UACGUAGGUGGUUUUCCCCUGAUAGGGCUAAGGGGGCCUGGAAGUUUGGACUGGGCAGAGCUCAACACAGCGUGGCAAAGUGGCUGUGGCUAGACUGCCUCUCUGGGUUCCUCGUCACUCAGCAGGGCAUCUCUGAGAGAAAUGCC [U26G A107G]
Second: UACGUAGGUGGUUUUCCCCUGAUAGGGCUAAGGGGGCCUGGAAGUUUGGACUGGGCAGAGCUCAACACAGCGUGGCAAAGUGGCUGUGGCUAGACUGCCUCUCUGGAUUCCUCGUCACUCCGCAGGGCAUCUCUGAGAGAAAUGCC [U26G A121C]
The self-cleavage of the first is lower: 0 for the first, 1.31 for the second.

Going from UACGUAGGUGGUUUUCCCCUGAUAGGGCUAAGGGGGCCUGGAAGUUUGGACUGGGCAGAGCUCAACACAGCGUGGCAAAGUGGCUGUGGCUAGACUGCCUCUCUGGAUUCCUCGUCACUCAGCAGGGCAUCUCUGAGAGAGAUGCC [U26G A141G] to UACGUAGGUGGUUUUCCCCUGAUAGGGCUAAGGGGGCCUGGAAGUUUGGACUGGGCAGAGCUCAACACAGCGUGGCAAAGUGGCUGUGGCUAGACUGCCUCUCUAGAUUCCUCGUCACUCAGCAGGGCAUCUCUGAGAGAAAUGCC [U26G G105A], the self-cleavage rises from 0.97 to 1.06.

First: UACGUAGGUGGUUUUCCCCUGAUAGGGCUAAGGGGGCCUGGAAGUUUGGACUGGGCAGAGCUCAACACAGCGUGGCAAAGUGGCUGUGGCUAGACUGCCUCUCUGGAUUCCUCGUCACUCAACAGGGCAUCUCUGAGAGAAAUGCC [U26G G122A]
Second: UACGUAGGUGGUUUUCCCCUGAUAGGGCUAAGGGGGCCUGGAAGUUUGGACUGGGCAGAGCUCAACACAGCGUGGCAAAGUGGCUGUGGCUAGACUGCCUCUCUGGAUUCCUCGUCACUCAGCAGGGCAUCUCUGAGAAAAAUGCC [U26G G139A]
The self-cleavage of the first is higher: 1.81 for the first, 1.47 for the second.

First: UACGUAGGUGGUUUUCCCCUGAUAGGGCUAAGGGGGCCAGGAAGUUUGGACUGGGCAGAGCUCAACACAGCGUGGCAAAGUGGCUGUGGCUAGACUGCCUCUCUGGAUUCCUCGUCACUCAGCAGGGCAUCUCUGAGAGAAAUGCC [U26G U39A]
Second: UACGUAGGUGGUUUUCCCCUGAUAGGGCUAAGGGGGCCCGGAAGUUUGGACUGGGCAGAGCUCAACACAGCGUGGCAAAGUGGCUGUGGCUAGACUGCCUCUCUGGAUUCCUCGUCACUCAGCAGGGCAUCUCUGAGAGAAAUGCC [U26G U39C]
The self-cleavage of the first is higher: 1.12 for the first, 1 for the second.

Source: the RNAGym collection of RNA variant scans (doi:10.7554/elife.90254)
